For one molecule, change in affinity results are on record in patent US20260055143A1, “HIGH AFFINITY VARIANTS OF SH2 DOMAINS” (Axoiya Inc., priority 2023, published 2026).

The target of the assay is SLTI{pTyr}AQVQKA (Homo sapiens, UniProt Q13291). The experiment in a line: Competitive ELISA, SH2D1B variants. The class given is binding. Background: In an ELISA, binding on a coated surface is turned into a signal by an enzyme label.

B1: SH2D1B: SH2D1B SH2 domain, SEQ ID 67 (protein, listed as Homo sapiens)
chain: YYHGRLTKQDCETLLLKEGVDGNFLLRDSESIPGVLCLCVSFKNIVYTYRIFREKHGYYRIQTAEGSPKQVFPSLKELISKFEKPNQGMVVHLLKPI
As to B1, the change in affinity result is listed as “could not be improved further” (superbinding grafts or the αA-2-Arg substitution) and “no improvement in affinity” (with either the sSrc or sFes graft).
